In patent US20250066490A1 (PROFOUNDBIO US, published 2025):

T1: cynomolgus CD70 recombinant protein (cynomolgus, UniProt A0A2K5WTU9 39-190)
T1 construct: also called cyno-antigen; cynomolgus CD70 protein
T1 sequence: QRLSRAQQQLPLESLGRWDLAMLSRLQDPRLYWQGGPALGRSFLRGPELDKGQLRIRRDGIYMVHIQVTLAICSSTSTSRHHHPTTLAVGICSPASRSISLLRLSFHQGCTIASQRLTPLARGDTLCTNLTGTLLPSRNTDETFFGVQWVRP

T2: CD70 ECD (antigen immobilized on the CM5 chip) (UniProt P32970 39-193)
T2 construct: extracellular domain; also called CD70 antigen
T2 sequence (looked up): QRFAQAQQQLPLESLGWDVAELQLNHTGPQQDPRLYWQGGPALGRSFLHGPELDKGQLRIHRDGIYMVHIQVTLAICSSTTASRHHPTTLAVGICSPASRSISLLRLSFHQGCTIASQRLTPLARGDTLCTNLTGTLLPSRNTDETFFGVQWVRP

T3: human CD70 expressed on the cell surface of tumor cell lines (human, UniProt P32970 1-193)
T3 construct: whole, on cells
T3 sequence (looked up): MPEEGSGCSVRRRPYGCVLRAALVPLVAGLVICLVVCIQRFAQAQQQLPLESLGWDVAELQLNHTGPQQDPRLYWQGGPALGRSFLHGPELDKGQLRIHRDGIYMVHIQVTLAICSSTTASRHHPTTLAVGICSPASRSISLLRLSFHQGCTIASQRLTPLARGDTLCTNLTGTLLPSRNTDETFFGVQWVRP

T4: human CD70 recombinant protein (human, UniProt P32970 39-193, limits assumed)
T4 construct: May be the same reagent as ACRO CDL-H5246; also called CD70 protein
T4 sequence (looked up): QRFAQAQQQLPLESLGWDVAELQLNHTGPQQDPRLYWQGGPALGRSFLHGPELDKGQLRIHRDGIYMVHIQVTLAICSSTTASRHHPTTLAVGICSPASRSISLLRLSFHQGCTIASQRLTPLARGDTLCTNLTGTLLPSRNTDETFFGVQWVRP

T5: human CD70 extra-cellular domain (ECD) linked to His tag (human, UniProt P32970 39-193)
T5 construct: extracellular domain; also called Hu CD70; HU CD70; not shown: His tag
T5 sequence (looked up): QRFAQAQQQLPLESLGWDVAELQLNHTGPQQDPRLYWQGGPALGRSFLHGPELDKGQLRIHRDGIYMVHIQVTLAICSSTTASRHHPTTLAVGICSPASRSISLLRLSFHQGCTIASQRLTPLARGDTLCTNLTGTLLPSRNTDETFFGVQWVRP


How the values were obtained:
[1] = molecular target: T1, cynomolgus CD70 recombinant protein; experiment: ELISA, IgG titrated on coated cynomolgus CD70 recombinant protein (2 µg/ml), anti-human Fc-HRP, OD450
Protocol: (§1) The binding specificity of the CD70 antibodies was tested by ELISA according to a standard protocol. Briefly, 96-well micro-plates were coated with 2 μg/ml of human or cynomolgus CD70 recombinant protein in PBS at 100 μl per well and incubated overnight at 4° C. The plates were washed twice with TBS+0.5% Tween20. 200 μL of blocking buffer (2% BSA in PBS) was added to each well, and the plates were incubated at 37° C. for 2 hours. The plates were washed using the wash buffer mentioned above. Serially diluted antibodies were added to the ELISA plates using 100 μl per well, and the plates were incubated for 1 hour at room temperature. Then plates were washed 3 times. HRP conjugated anti-human Fc antibody solution (Sigma, I18885-2ML, diluted with blocking buffer) was added to the plates using 100 μl per well. The plates were incubated at room temperature for 1 hour and then washed 3 times. Then the TMB solution was added to plates using 100 μl per well and the plates were placed at RT for 5-15 mins. Then the stop solution (2M H2SO4) was added using 50 μl per well. The absorbance was measured at A450 and A630.

[2] = molecular target: T2, CD70 ECD (antigen immobilized on the …); experiment: SPR (Biacore T200), CD70 ECD on CM5 chip, IgG as analyte
Protocol: (§2) The immobilization of antigen CD70 ECD was performed at 25° C. with HBS-EP as the running buffer. Sensor chip surface of flow cells 1, 4 were activated by freshly mixed 50 mmol/L N-Hydroxy succinimide (NHS) and 200 mmol/L 1-ethyl-3-(3-dimethylaminopropyl) carbodiimide hydrochloride (EDC) for 420s (10 μL/min). Afterwards, CD70 antigen diluted in 10 mmol/L NaAC (pH 4.5) was injected into flow cell 4 to achieve conjugation of the appropriate Response Unit, while flow cell 1 was set as a blank. After the amine coupling reaction, the remaining active coupling sites on chip surface were blocked by 420s injection of 1 mol/L ethanolamine hydrochloride.
(§3) The assay was performed at 25° C. and the running buffer was HBS-EP. Diluted antibodies were injected over the surface of flow cells 1 and 4 during the association phase, followed by injecting running buffer as the dissociation phase. All the data were processed using Biacore T200 Evaluation software version 3.1. Flow cell 1 and a blank injection of buffer in each cycle were used as a double reference for Response Units subtraction. Kinetic data of the interaction between the antibodies and CD70 antigen were obtained through affinity measurement.

[3] = molecular target: T3, human CD70 expressed on the cell …; experiment: flow cytometry on Caki-1 cells
Protocol: (§4) The lead antibodies were tested for binding to renal carcinoma cells and glioblastoma cells expressing CD70 on the cell surface by flow cytometry. […] U251 cells were cultured with MEM medium containing of 10% FBS and 1% NEAA+1 mM sodium pyruvate. DBTRG-05MG cells were cultured with DMEM medium (Gibco, Cat #C11995500BT) containing of 10% FBS. Each of the lead antibodies and the controls were incubated for 30 mins with the different cell lines (3×10⁵ cells per well) in 0.2 ml FACS buffer (1×PBS with 0.1% BSA) at 4° C. Then, the cells were pelleted, washed, and incubated at 4° C. for 30 mins with 100 μl of 1:200 diluted PE-conjugated anti human Fc (Abcam, Ab98596) in FACS buffer. The cells were pelleted again, washed with PBS, resuspended in FACS buffer and analyzed by flow cytometer (Beckman, CytoFLEX).
(§5) Antibodies 2H8 and 2D2 had slightly higher binding ability to the cell lines than that of antibody 69A7.

[4] = molecular target: T3, human CD70 expressed on the cell …; experiment: flow cytometry on 786-O cells
Protocol: as §4, §5

[5] = molecular target: T3, human CD70 expressed on the cell …; experiment: flow cytometry on DBTRG-05MG cells, PE anti-human Fc, MFI; same fit as Table 6, which prints it in nM
Protocol: as §4, §5

[6] = molecular target: T3, human CD70 expressed on the cell …; experiment: flow cytometry on DBTRG-05MG cells
Protocol: as §4, §5

[7] = molecular target: T4, human CD70 recombinant protein; experiment: ELISA, IgG titrated on coated human CD70 recombinant protein (2 µg/ml), anti-human Fc-HRP, OD450
Protocol: as §1

[8] = molecular target: T3, human CD70 expressed on the cell …; experiment: flow cytometry on U251 cells
Protocol: as §4, §5

[9] = molecular target: T5, human CD70 extra-cellular domain (ECD) …; experiment: BLI (Octet RED), antibody on anti-human Fc tips, CD70 ECD-His at 100 nM
Protocol: Recombinant proteins consisting of human, rat, or mouse CD70 extra-cellular domain (ECD) linked to His tag was purchased (from ACRO systems). 69A7 and 2E7 (20 nM) were immobilized on anti-human IgG Fc biosensor tips (ForteBio). Binding assays using one concentration (100 nM) of recombinant protein in solution were performed using Octet RED (ForteBio). Association time was set at 180s and dissociation time was set at 300s. Binding affinity was calculated using ForteBio Data Acquisition 6.3 software. Affinity was derived by fitting the kinetic data to a 1:1 Langmuir binding model utilizing global fitting algorithms. […] 2E7 had no cross-reactivity to rat or mouse CD70 (Table 10).

[10] = molecular target: T3, human CD70 expressed on the cell …; experiment: flow cytometry on U251 cells, PE anti-human Fc, MFI; same fit as Table 6, which prints it in nM
Protocol: as §4, §5

[11] = molecular target: T3, human CD70 expressed on the cell …; experiment: flow cytometry on 786-O cells, PE anti-human Fc, MFI; same fit as Table 6, which prints it in nM
Protocol: as §4, §5

[12] = molecular target: T3, human CD70 expressed on the cell …; experiment: cell-based or functional assay
[13] = molecular target: T3, human CD70 expressed on the cell …; experiment: flow cytometry on Caki-1 cells, PE anti-human Fc, MFI; same fit as Table 6, which prints it in nM
Protocol: as §4, §5

[14] = molecular target: T2, CD70 ECD (antigen immobilized on the …); experiment: SPR (Biacore T200), CD70 ECD on CM5 chip; lower end tied to 2D2 by the KD values of Table 8
Protocol: as §2, §3

| EC50 [1] [µg/mL] | Kd [2] [nM] | koff [2] [s⁻¹] | kon [2] [M⁻¹ s⁻¹] | EC50 [3] [nM] | EC50 [4] [nM] | EC50 [5] [µg/mL] | EC50 [6] [nM] | EC50 [7] [µg/mL] | EC50 [8] [nM] | Kd [9] [nM] | koff [9] [s⁻¹] | kon [9] [M⁻¹ s⁻¹] | EC50 [10] [µg/mL] | EC50 [11] [µg/mL] | Internalization rate (%) on 786-O [12] [%] | Internalization rate (%) on Caki-1 [12] [%] | EC50 [13] [µg/mL] | fold improved affinity against parent antibody 69A7 [14] [fold] | Binder |
| --- | --- | --- | --- | --- | --- | --- | --- | --- | --- | --- | --- | --- | --- | --- | --- | --- | --- | --- | --- |
| 0.00284 | 52.3 | 0.00236 | 45100 | – | – | – | – | – | – | – | – | – | – | – | – | – | – | – | 1F6 (Vorsetuzumab), reference antibody, full IgG (antibody, V domains shown, also called h1F6; h1 F6) VH: QVQLVQSGAEVKKPGASVKVSCKASGYTFTNYGMNWVRQAPGQGLKWMGWINTYTGEPTYADAFKGRVTMTRDTSISTAYMELSRLRSDDTAVYYCARDYGDYGMDYWGQGTTVTVSS VL: DIVMTQSPDSLAVSLGERATINCRASKSVSTSGYSFMHWYQQKPGQPPKLLIYLASNLESGVPDRFSGSGSGTDFTLTISSLQAEDVAVYYCQHSREVPWTFGQGTKVEIK |
| 0.0104 | 313 | 0.00198 | 6330 | 9.89 | 6.49 | 1.7 | 11.3 | 0.278 | 8.11 | 2.89 | 0.000978 | 339000 | 1.22 | 0.973 | 64 | 27 | 1.48 | – | 69A7 (parent antibody), full IgG (antibody, V domains shown, also called parent antibody 69A7) VH: QVQLQESGPGLVKPSETLSLTCTVSGGSVSSDYYYWSWIRQPPGKGLEWLGYIYYSGSTNYNPSLKSRVTISVDTSKNQFSLKLRSVTTADTAVYYCARGDGDYGGNCFDYWGQGTLVTVSS VL: EIVLTQSPATLSLSPGERATLSCRASQSVSSYLAWYQQKPGQAPRLLIFDASNRATGIPARFSGSGSGTDFTLTISSLEPEDFAVYYCQQRSNWPLTFGGGTKVEIK |
| 0.00326 | 43.7 | 0.00112 | 25600 | 5.65 | 5.12 | 1.44 | 9.6 | 0.0595 | 7.99 | – | – | – | 1.2 | 0.767 | 76 | 62 | 0.847 | – | 1H8, full IgG (antibody, V domains shown) VH: QVQLQESGPGLVKPSETLSLTCTVSGGSVSSDYYYWSWIRQPPGKGLEWLGYIYYSGSTNYNPSLKSRVTISVDTSKNQFSLKLRSVTTADTAVYYCARGDGDFMGVCFDYWGQGTLVTVSS VL: EIVLTQSPATLSLSPGERATLSCRASQSVSSYLAWYQQKPGQAPRLLIFDASNRATGIPARFSGSGSGTDFTLTISSLEPEDFAVYYCQQRSNWPLTFGGGTKVEIK |
| – | – | – | – | 284 | 142 | – | 494 | 9.1 | – | – | – | – | – | 21.3 | 49 | 20 | – | – | 2A4, full IgG (antibody, V domains shown) VH: QVQLQESGPGLVKPSETLSLTCTVSGGSVSSDYYYWSWIRQPPGKGLEWLGYIYYSGSTNYNPSLKSRVTISVDTSKNQFSLKLRSVTTADTAVYYCARGDGDYGGNVFPYWGQGTLVTVSS VL: EIVLTQSPATLSLSPGERATLSCRASQSVSSYLAWYQQKPGQAPRLLIFDASNRATGIPARFSGSGSGTDFTLTISSLEPEDFAVYYCQQRSNWPLTFGGGTKVEIK |
| 0.00424 | 89.6 | 0.00105 | 11700 | 5.98 | 5.62 | 2.06 | 13.7 | 0.087 | 7.38 | – | – | – | 1.11 | 0.842 | 76 | 53 | 0.896 | 3 to 8 | 2D2, full IgG (antibody, V domains shown) VH: QVQLQESGPGLVKPSETLSLTCTVSGGSVSSDYYYWSWIRQPPGKGLEWLGYIYYSGSTNYNPSLKSRVTISVDTSKNQFSLKLRSVTTADTAVYYCARGDGDYGGNCFDYWGQGTLVTVSS VL: EIVLTQSPATLSLSPGERATLSCRASQSVSSYLAWYQQKPGQAPRLLIFDASNRATGIPARFSGSGSGTDFTLTISSLEPEDFAVYYCQQRLKFPLTFGGGTKVEIK |
